Molecular target: gp120 of HIV-1NL4-3 virus (on virus particles) (HIV-1 (NL4-3))
Test: cell-based or functional assay

B1: MoMo30 protein (hevamine A-related protein) from Momordica balsamina, purified from leaf extract (other)
chain: GGIATYWGQDTREGRLTAACATGKFQIINIGFLSTFGNGRPPQVNLTRHCSPISNGCRNVSVGVLNCRNDGVKVMLSIGGPHGSYSLSSAAEAIDLADYIWNNFLGGRSTSLRPFGDVPLDGVDFRIERGQFSHYYTMVARRLHDYGRQCSRKVYLTAAPGCRFPDKYLTELLHTGLFDYVWVRFFDDRQCQYNSVNPSGFWWSWMRWINSIPARKFYVGIPASEEAGDGYVAPEVLIKEVLPFTKKFTNYGGVMLFDLSNDVQTNYSSIISNRV
  IC50, inhibition of HIV-1NL4-3 infectivity in MAGI cell assay: 2.8 nM

— patent US20240325481A1 (MOREHOUSE SCHOOL OF MEDICINE, published 2024)
